# Experimental data published in patent publication US20180112001A1.
# Target: human MUC16 (mucin 16), endogenously expressed on cells (human)
# Experiment: MSD electrochemiluminescence cell binding; RLU ratio OVCAR-3/SK-OV-3; Ab […]; NS = Non-Specific, ratio <2.5-fold
row,Ratio: anti-MUC16 Binding OVCAR-3/SK-OV-3,Substance
1,< 2.5,mIgG2a Isotype Control Antibody
2,< 2.5,mIgG1 Isotype Control Antibody
3,< 2.5,hIgG1 Isotype Control Antibody
